Test results reported in patent publication US20200369765A1 (INNATE PHARMA, published 2020).

T1: Human Siglec-9 Ig-like C2-type domain 1 (human)
T1 construct: expressed on HEK293T cells
T1 chain: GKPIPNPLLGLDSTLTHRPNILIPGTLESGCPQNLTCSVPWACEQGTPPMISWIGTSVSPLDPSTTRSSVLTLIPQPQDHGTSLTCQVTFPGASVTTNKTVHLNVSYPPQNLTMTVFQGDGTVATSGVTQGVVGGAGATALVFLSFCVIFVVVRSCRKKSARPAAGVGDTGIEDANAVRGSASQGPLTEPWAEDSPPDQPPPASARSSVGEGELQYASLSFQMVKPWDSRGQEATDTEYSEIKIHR


Tests used:
Human Siglec-7 [1] = target: T2, Human Siglec-7 (human, UniProt Q9Y286 19-467); experiment: flow cytometry, CHO transfectants
T2 construct: Expressed on transfected CHO cells; also called huSiglec-7; CD328
T2 sequence (Q9Y286 19-467): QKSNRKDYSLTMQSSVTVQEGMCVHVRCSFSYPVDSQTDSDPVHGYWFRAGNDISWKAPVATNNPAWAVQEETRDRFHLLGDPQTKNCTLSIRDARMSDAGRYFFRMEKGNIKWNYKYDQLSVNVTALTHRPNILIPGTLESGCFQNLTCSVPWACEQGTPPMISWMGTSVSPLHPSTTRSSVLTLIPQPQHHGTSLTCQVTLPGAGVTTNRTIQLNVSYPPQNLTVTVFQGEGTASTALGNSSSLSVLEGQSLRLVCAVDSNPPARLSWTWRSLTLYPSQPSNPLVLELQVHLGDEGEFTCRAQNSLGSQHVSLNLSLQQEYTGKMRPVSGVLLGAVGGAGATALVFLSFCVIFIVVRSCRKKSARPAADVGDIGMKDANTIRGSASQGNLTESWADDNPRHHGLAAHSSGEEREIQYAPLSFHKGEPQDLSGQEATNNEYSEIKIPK

Human Siglec-9 [2] = target: T3, Human Siglec-9 (human, UniProt Q9Y336 18-463); experiment: flow cytometry titration on neuraminidase-treated moDCs, goat F(ab')2 anti-human IgG (Fc) PE; table under the right panel
T3 construct: On transfected CHO cells; also on YTS and KHYG-1 transfectants, primary NK cells and moDC; also called huSiglec-9; CD329
Procedure: (§1) moDC were desialylated for 2 hours with 25 mU neuraminidase (Roche Diagnostics).
(§2) Binding on moDCs and neuraminidase treated moDCs was tested in a titration experiment by flow cytometry. Cells were incubated 1h in Staining Buffer (SB) with primary antibodies at 10 ug/ml and a series of dilution of 1:10. They were washed two times with SB, then incubated 30 min with a Goat F(ab′)² Anti-Human IgG (Fc) PE (Jackson ImmunoResearch), and washed twice with SB.

[3] = target: T4, Human Siglec-9 N-terminal V-set Ig-like domain (human); experiment: flow cytometry, HEK293T cells expressing single Siglec-9 domains
T4 construct: expressed on HEK293T cells

Human Siglec-9 mutant M5 = target: T5, Human Siglec-9 mutant M5 (human, UniProt Q9Y336 18-463); experiment: flow cytometry, HEK293T transfectants
T5 construct: Expressed on HEK293T cells; also called Mutant 5

Human Siglec-9 mutant M9 = target: T6, Human Siglec-9 mutant M9 (human, UniProt Q9Y336 18-463); experiment: flow cytometry, HEK293T transfectants
T6 construct: Expressed on HEK293T cells; also called Mutant 9

[4] = target: T7, Human Siglec-9 mutant M10 (human, UniProt Q9Y336 18-463); experiment: flow cytometry, HEK293T transfectants
T7 construct: Expressed on HEK293T cells; also called Mutant 10
T7 sequence (Q9Y336 other isoform, or with tags, fused parts or gaps mutant): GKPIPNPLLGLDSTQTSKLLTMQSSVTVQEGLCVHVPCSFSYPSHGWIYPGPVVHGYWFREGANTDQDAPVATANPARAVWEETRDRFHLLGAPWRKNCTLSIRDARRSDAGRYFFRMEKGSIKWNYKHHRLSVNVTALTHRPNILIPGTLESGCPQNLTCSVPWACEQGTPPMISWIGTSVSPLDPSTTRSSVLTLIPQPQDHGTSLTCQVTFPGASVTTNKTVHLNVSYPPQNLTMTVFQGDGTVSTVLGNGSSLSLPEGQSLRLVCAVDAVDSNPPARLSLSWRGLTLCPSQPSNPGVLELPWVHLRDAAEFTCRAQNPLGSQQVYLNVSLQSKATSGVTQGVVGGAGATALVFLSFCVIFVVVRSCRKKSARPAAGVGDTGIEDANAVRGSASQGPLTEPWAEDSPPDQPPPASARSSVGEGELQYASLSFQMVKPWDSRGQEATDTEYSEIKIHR

Human Siglec-9 mutant M2 = target: T8, Human Siglec-9 mutant M2 (human, UniProt Q9Y336 18-463); experiment: flow cytometry, HEK293T transfectants
T8 construct: Expressed on HEK293T cells; also called Mutant 2

[5] = target: T9, Human Siglec-9 mutant M11 (human, UniProt Q9Y336 18-463); experiment: flow cytometry, HEK293T transfectants
T9 construct: Expressed on HEK293T cells; also called Mutant 11
T9 sequence (Q9Y336 other isoform, or with tags, fused parts or gaps mutant): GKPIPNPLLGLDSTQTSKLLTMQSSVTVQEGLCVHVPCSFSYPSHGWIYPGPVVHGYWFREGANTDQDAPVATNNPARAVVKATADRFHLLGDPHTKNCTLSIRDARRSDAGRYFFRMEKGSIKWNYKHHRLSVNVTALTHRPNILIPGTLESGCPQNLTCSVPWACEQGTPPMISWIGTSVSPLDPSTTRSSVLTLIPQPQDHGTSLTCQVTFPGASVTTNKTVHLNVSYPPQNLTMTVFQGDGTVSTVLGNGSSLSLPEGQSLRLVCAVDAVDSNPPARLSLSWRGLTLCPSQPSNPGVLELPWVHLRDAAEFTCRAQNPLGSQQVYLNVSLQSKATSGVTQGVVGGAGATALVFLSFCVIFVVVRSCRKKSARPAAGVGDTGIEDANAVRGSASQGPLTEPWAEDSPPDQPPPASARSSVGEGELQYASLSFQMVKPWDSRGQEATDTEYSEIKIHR

Human Siglec-9 [6] = target: T3, Human Siglec-9; experiment: flow cytometry titration on untreated monocyte-derived dendritic cells (moDCs), goat F(ab')2 anti-human IgG (Fc) PE; table under the left panel
Procedure: as §2

Human Siglec-9 [7] = target: T3, Human Siglec-9; experiment: flow cytometry titration on moDC vs neuraminidase-treated moDC
Procedure: as §1, §2

Siglec-9 Fc protein = target: T10, Siglec-9 Fc protein (human); experiment: ELISA, blocking: Siglec-9 Fc captured on protein A, mAb dilution series, then biotinylated polymer Sia1 (Neu5Aca2-3Galb1-4GlcNAcb-PAA-biotin), streptavidin-peroxidase (top panel)
T10 construct: Produced in CHO cells; also called human Siglec-9 Fc
T10 sequence (chain, as listed by the source limits assumed): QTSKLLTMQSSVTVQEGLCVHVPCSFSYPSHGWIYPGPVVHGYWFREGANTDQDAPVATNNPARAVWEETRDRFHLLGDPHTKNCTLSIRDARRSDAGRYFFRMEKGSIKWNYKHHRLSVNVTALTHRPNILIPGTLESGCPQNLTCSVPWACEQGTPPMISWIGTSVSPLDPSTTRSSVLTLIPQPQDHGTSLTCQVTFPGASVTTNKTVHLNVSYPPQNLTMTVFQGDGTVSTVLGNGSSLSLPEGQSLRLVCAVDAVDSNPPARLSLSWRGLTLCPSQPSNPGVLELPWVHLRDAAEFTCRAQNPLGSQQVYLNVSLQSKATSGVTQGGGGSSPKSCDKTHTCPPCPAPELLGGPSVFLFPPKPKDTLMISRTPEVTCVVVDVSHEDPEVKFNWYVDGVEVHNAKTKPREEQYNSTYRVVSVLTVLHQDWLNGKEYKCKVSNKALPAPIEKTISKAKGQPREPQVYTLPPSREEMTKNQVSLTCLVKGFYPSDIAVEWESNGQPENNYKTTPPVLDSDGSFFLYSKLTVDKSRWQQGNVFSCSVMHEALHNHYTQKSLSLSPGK
Procedure: (§3) Blocking of the interaction between Siglec-7 and -9 and sialylated ligands by anti Siglec-7/9 antibodies was tested on ELISA assays. Siglec proteins were Siglec-7 human Fc and Siglec-9 Human Fc recombinant proteins, and ligands were biotinylated polymers with sialylated trisaccharides (Neu5Aca2-3Galb1-4GcNAcb-PAA-biotin Glycotech #01-077 referred to as “Sia1” and 6′-Sialyllactose-PAA-biotin Glycotech #01-039 (referred to as “Sia2”). Briefly, Protein A was coated on ELISA plates over night at 4° C. After 3 washes and saturation, Siglec-7 Fc and Siglec-9 Fc were added at 0.8 μg/well at RT for 1H30. After 3 washes, mAbs were added at 20 ug/ml and a series of dilution of 1:5. After 3 washes, biotinylated sialylated polymers were added for 3 hours at room temperature. After 3 washes, Streptavidin-Peroxidase (Beckman) was added at 1:1000. […] The absorbance was read at 450 nm.

Human Siglec-9 [8] = target: T3, Human Siglec-9; experiment: flow cytometry, CHO transfectants
Procedure: (§4) Binding of antibodies on human Siglec-7, human Siglec-9 and Cynomolgus Siglec-9 was tested by titration experiment by flow cytometry on CHO cells transfected with human Siglec-7 and human Siglec-9 and Cynomolgus Siglec-9. Cells were incubated 1h in Staining Buffer (SB) with primary antibodies at 20 ug/ml and a series of dilution of 1:5. They were washed three times with SB, then incubated 30 min with a goat F(ab′)² Anti-human IgG (Fc) PE (Beckman Coulter #1M05510), and washed twice with SB.
Target sequence in this assay (Q9Y336 18-463): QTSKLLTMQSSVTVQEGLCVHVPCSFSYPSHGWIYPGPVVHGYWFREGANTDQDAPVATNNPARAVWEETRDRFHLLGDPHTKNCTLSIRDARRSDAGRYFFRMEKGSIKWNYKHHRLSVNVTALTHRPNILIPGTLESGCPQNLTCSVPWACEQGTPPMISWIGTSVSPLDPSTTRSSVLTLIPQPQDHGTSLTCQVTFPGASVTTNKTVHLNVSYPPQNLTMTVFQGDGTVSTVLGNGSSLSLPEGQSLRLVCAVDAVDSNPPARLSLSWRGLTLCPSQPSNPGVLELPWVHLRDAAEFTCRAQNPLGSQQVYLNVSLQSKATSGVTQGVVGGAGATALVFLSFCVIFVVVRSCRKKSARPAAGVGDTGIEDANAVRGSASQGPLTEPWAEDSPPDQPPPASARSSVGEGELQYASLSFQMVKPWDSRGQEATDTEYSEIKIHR

Human Siglec-7 [9] = target: T2, Human Siglec-7; experiment: flow cytometry, CHO transfectants; remark: listed apart in the source
Procedure: as §4

Cynomolgus Siglec = target: T11, Cynomolgus Siglec (cynomolgus); experiment: flow cytometry, CHO transfectants
T11 construct: Expressed on transfected CHO cells; also called Siglec-Cyno; cynoSiglec
T11 sequence (chain, as listed by the source limits assumed): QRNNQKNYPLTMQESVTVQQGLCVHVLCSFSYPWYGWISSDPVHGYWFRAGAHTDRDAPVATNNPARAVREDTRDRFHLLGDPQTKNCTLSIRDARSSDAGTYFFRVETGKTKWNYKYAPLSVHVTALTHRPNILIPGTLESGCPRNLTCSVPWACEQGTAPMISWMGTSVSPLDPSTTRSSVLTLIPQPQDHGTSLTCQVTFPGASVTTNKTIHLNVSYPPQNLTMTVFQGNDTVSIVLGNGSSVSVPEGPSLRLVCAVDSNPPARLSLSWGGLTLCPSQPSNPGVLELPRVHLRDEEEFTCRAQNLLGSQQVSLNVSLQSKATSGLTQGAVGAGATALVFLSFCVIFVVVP
Procedure: as §4

[10] = target: T1, Human Siglec-9 Ig-like C2-type domain 1; experiment: flow cytometry, HEK293T cells expressing single Siglec-9 domains
Siglec-7 Fc protein = target: T12, Siglec-7 Fc protein (human); experiment: ELISA, blocking: Siglec-7 Fc captured on protein A, mAb dilution series, then biotinylated polymer Sia2, streptavidin-peroxidase (top panel); partial inhibition
T12 construct: Produced in CHO cells; also called human Siglec-7 Fc
T12 sequence (chain, as listed by the source limits assumed): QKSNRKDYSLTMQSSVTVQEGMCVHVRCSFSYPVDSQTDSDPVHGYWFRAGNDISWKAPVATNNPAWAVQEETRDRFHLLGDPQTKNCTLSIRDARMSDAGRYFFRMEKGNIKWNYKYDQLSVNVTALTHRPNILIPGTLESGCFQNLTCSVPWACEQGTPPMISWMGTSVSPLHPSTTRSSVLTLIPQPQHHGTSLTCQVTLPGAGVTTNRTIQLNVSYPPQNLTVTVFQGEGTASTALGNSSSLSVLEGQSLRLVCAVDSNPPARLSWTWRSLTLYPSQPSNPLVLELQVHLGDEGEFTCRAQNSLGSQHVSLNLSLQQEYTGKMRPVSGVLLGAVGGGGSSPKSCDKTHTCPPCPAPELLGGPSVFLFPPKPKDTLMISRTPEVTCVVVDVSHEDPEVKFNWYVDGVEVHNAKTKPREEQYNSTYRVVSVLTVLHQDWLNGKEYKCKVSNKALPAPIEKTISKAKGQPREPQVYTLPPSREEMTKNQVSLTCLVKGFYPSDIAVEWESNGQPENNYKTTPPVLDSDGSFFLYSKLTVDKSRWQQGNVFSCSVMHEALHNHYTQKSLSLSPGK
Procedure: as §3

binding result (Human Siglec-7 [1]) | EC50 (Human Siglec-9 [2]) [µg/mL] | binding result [3] | binding result (Human Siglec-9 mutant M5) | binding result (Human Siglec-9 mutant M9) | binding result [4] | binding result (Human Siglec-9 mutant M2) | binding result [5] | EC50 (Human Siglec-9 [6]) [µg/mL] | fold change of EC50 after neuraminidase treatment of moDC (Human Siglec-9 [7]) [fold] | binding result (Siglec-9 Fc protein) | EC50 (Human Siglec-9 [8]) [µg/mL] | EC50 (Human Siglec-7 [9]) [µg/mL] | EC50 (Cynomolgus Siglec) [µg/mL] | binding result [10] | IC50 (read off the curve) (Siglec-7 Fc protein) [µg/mL] | Binder
no binding | 0.0925 | binds | binds | binds | binds | binds | binds | 2.47 | 10 | – | – | – | – | – | – | mAbD (antibody, human IgG1, V domains shown) VH: QIQLVQSGPELKKPGETVKISCKASGYTFTDYSMHWVKQAPGKGLKWMGWIITETGEPTYADDFRGRFAFSLETSANTAYLQINNLKNEDTATYFCARDFDGYWGQGTTLTVSS VL: DILMTQSPASLSASVGETVTITCRASENIYSYLAWYQQKRGKSPQFLVYNAKTLTEGVPSRFRGSGSGTQFSLKINSLQPEDFGTYYCQHHYGFPWTFGGGTKLEIK
– | – | – | – | – | – | – | – | – | – | binds | 0.31 | 0.33 | 0.17 | binds | – | mAb6 (antibody, human IgG1, V domains shown) VH: EIQLQQSGPELEKPGASVKISCKASGYSFSDYNMNWVKQSNGKSLEWIGNIDPYYGATSYNQRFKGKATLTVDKSSSTAYMQLKSLTSEDSAVYYCARGDSLFAYWGQGTLVTVSA VL: DIVMTQSQEFMSTSLGDRVSVTCKASQNVGTNVAWYQQKPGQSPKALLYSASSRYSGVPDRFTGSGSGTDFTLTINNMQSEDLAEYFCQQYITYPYTFGGGTKLEIK

More lines, now with the values behind:

Binder | binding result (Human Siglec-7 [1]) | EC50 (Human Siglec-9 [2]) [µg/mL] | binding result [3] | binding result (Human Siglec-9 mutant M5) | binding result (Human Siglec-9 mutant M9) | binding result [4] | binding result (Human Siglec-9 mutant M2) | binding result [5] | EC50 (Human Siglec-9 [6]) [µg/mL] | fold change of EC50 after neuraminidase treatment of moDC (Human Siglec-9 [7]) [fold] | binding result (Siglec-9 Fc protein) | EC50 (Human Siglec-9 [8]) [µg/mL] | EC50 (Human Siglec-7 [9]) [µg/mL] | EC50 (Cynomolgus Siglec) [µg/mL] | binding result [10] | IC50 (read off the curve) (Siglec-7 Fc protein) [µg/mL]
mAb4 (antibody, human IgG1, V domains shown) VH: DVQLVESGGDLVKPGGSLKLSCAASGFAFSSYDMSWVRQSPEKRLEWIAHIGSGGGNIYYPDTVKGRFTISRDNAKNTLYLQMRSLKSEDTAMYYCARLIFTTGFYGMDYWGQGTSVTVSS VL: DIQMTQTTSSLSASLGDRVTISCRASQDISSYLNWYQQKPDGTIKLLIYYTSRLHSGVPSRFSGSGSGTDYSLTISNLDQDDIATYFCQQGNALPWTFGGGTKLEIK | – | – | – | – | – | – | – | – | – | – | binds | 0.28 | 0.17 | 0.17 | binds | ~2
mAb5 (antibody, human IgG1, V domains shown) VH: EIQLQQSGPELEKPGASVKISCKASGYSFSDYNMNWVKQSNGKSLEWIGNIDPYYGATSYNQRFKGKATLTVDKSSSTAYMQLKSLTSEDSAVYYCARGDSLFAYWGHGTLVTVSA VL: DIVMTQSQEFMSTSLGDRVSVTCKASQNVGTNVAWYQQKPGQSPKALLYSASSRYSGVPDRFTGSGSGTDFTLTISNVQSEDLAEYFCQQYITYPYTFGGGTKLEIK | – | – | – | – | – | – | – | – | – | – | binds | 0.26 | 0.22 | 0.14 | binds | ~1
